Holding throughout (conditions): FMN input: 0 or 200 uM; Eterna round: R93 (includes R88 designs)
Data set [1] concerns MS2 coat protein. The data set is described as follows: apparent KD of MS2 coat protein, switch ON state; designed switch direction (-1 OFF switch, 1 ON switch): 1; higher = weaker reporter binding. Put shortly: (§1)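 Designed RNA switches were transcribed on-chip from Illumina sequencing clusters and titrated with SNAP-549-labelled MS2 coat protein in twofold steps from 0.7 or 1.5 nM up to 3 µM. Each step lasted 0.8–1.5 h at first and 10–20 min by the end, in 100 mM Tris-HCl pH 7.5, 80 mM KCl and 4 mM MgCl2, without or with constant ligand. Apparent KD is the median, for each design, of fits to normalised cluster binding curves.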

Data set [2] relates to MS2 coat protein. The data set is described as follows: apparent KD of MS2 coat protein, switch OFF state (with FMN for OFF switches, without FMN for ON switches); designed switch direction (-1 OFF switch, 1 ON switch): 1; higher = weaker reporter binding. Put shortly: as §1
In data set [3] the test system is MS2 coat protein. The data set is described as follows: apparent KD of MS2 coat protein, switch OFF state (with FMN for OFF switches, without FMN for ON switches); designed switch direction (-1 OFF switch, 1 ON switch): -1; higher = weaker reporter binding. Put shortly: as §1
Data set [4] has as its system MS2 coat protein. Description: apparent KD of MS2 coat protein, switch ON state; designed switch direction (-1 OFF switch, 1 ON switch): -1; higher = weaker reporter binding. Put shortly: as §1

As to “AAAAAAAAAAGAGAGGAUAUCCAAAAAAAAACAUGAGGAUCACCCAUGUAAAAAAAAAAAAAAUGGGAGAAGGCUCAAAAAAAAAA [Helter Skelter 1]”, the “apparent KD of MS2 coat protein” value was 0.0334 µM in the data set on MS2 coat protein [1] and 0.0548 µM in the data set with MS2 coat protein [2].
Take “AAAAAACAUGAGGAUCACCCAUGUAAAAAAAUGGGAGGAUAUACAAAAACGAAAGAAAAAGUAGAAGGCCUGAAAA [same state 7]”: the “apparent KD of MS2 coat protein” value was 0.0377 µM in the data set on MS2 coat protein [1] and 0.159 µM with MS2 coat protein [2].
As for “AAAAAACAUGAGGAUCACCCAUGUAAAAAUAUGGGAGGAUAUACAAACACGAAAGUGAAAGUAGAAGGCCUAAAAA [SS! MT 17]”, the “apparent KD of MS2 coat protein” value in the data set on MS2 coat protein [1] was found to be 0.019 µM; in the data set on MS2 coat protein [2], 0.0853 µM.
In the case of “AAAAAACAUGAGGAUCACCCAUGUCAAAAGACGUGAGGAUAUGUACAGACUUCGGUCUGUACAGAAGGCAUGUAAA [SS1 - 1053]”, the entries for the “apparent KD of MS2 coat protein” value with MS2 coat protein [1] and in the data set with MS2 coat protein [2] were 0.0213 µM and 0.144 µM, respectively.
For “AAAAAACAUGAGGAUCACCCAUGUCCUCACGUGCGAGGAUAUGGAUGGAAACCAUACUGUCCAGAAGGCGCAUGUA [EteRNA is fun!]” the same measures were 0.23 µM and 0.159 µM.
The like results for “AAAAAACAUGAGGAUCACCCAUGUCGAAAGACGUGAGGAUAUGUACAGACUUCGGUCUGUACAGAAGGCACAAAAA [SS1 - 1032]” were, in that order, 0.0246 µM and 0.208 µM.
The like results for “AAAAAACAUGAGGAUCACCCAUGUCUUCGGACGUGAGGAUAUGUACAGACUUCGGUCUGUACAGAAGGCACGAAAA [SS1 - 1035]” were, in that order, 0.0227 µM and 0.114 µM.
With “AAAAAACAUGAGGAUCACCCAUGUGAAGAUAUGGAAGGAUAUACAAAGACGAAAGUCAAAGUAGAAGGUCUAAAAG [76%, Meechl 3]”, the “apparent KD of MS2 coat protein” value amounted to 0.0171 µM with MS2 coat protein [1] and 0.0177 µM in the data set with MS2 coat protein [2].
The like results for “AAAAAACAUGAGGAUCACCCAUGUGAGAACAUGGGAGGAUAUACGAGGACGAGAGUCAAGGUAGAAGGCCUAAAAG [Garnet 73]” were, in that order, 0.0501 µM and 0.0136 µM.
Regarding “AAAAAACAUGAGGAUCACCCAUGUGCAAAAUUCGCAGGAUAUUCCUCAAUUAAAUGAGAGGAAGAAGGGUGUAAAA [Nob's Hobby 25 - Jieux - Same State 1]”, the “apparent KD of MS2 coat protein” value in the data set with MS2 coat protein [1] was 0.0274 µM; with MS2 coat protein [2], 0.13 µM.
As to “AAAAAACAUGAGGAUCACCCAUGUGCAAAAUUCGCAGGAUAUUUCUCAAUUAAAUGAGAGGAAGAAGGGUGAAAAA [Nob's Hobby 27 - Jieux - Same State 1]”, the results for the “apparent KD of MS2 coat protein” value in the data set with MS2 coat protein [1] and in the data set with MS2 coat protein [2] were 0.0215 µM and 0.0993 µM, respectively.
In the case of “AAAAACACAGUGCAGGAUAUGGUAAUAGUCACAUGAGGAUCACCCAUGUUCUUUUAUAAGAACGAUCAGAAGGGCGGUGAAAAAA [Mat - Same state - Malcolm Mod - D114]”, the “apparent KD of MS2 coat protein” value with MS2 coat protein [1] amounted to 0.241 µM; in the data set with MS2 coat protein [2] it was 0.155 µM.
On to “GAAAAAGGAGGAUAUACGAACAUGUCAAAAGACGUGAAGGGACAUGAGGAUCACCCAUGUAGAAGGCUUAAAAG [Mat - Exclusion 2 - JL mod - D94]”, for which the “apparent KD of MS2 coat protein” value is 0.0157 µM in the data set on MS2 coat protein [3] and 0.0374 µM in the data set on MS2 coat protein [4].
The like results for “GAAAACCUAGGAUAUACAUGAGGAUCACCCAUGUCAGUAGACUGGGAAAGGUCUCUCAGUAGAAGGAGGACCCG [Zaered]” were, in that order, 0.437 µM and 0.509 µM.
On to “GAAAAGUCAGGAUAUACAGAAAAAAAAACGAAAAAAAAUCUGUAGAAGGGACAUGAGGAUCACCCAUGUUAAAG [Mat - Exclusion 4 - Mayanna - D126]”, for which the “apparent KD of MS2 coat protein” value worked out at 0.0236 µM with MS2 coat protein [3] and 0.038 µM with MS2 coat protein [4].
In the case of “GAAAAGUCAGGAUAUAUAGGAAAAAUAAAAAAAAUAAAACUAUAGAAGGGACAUGAGGAUCACCCAUGUUAAAA [Mat - Exclusion 4 - Mayanna - D131]”, the “apparent KD of MS2 coat protein” value stood at 0.0247 µM in the data set on MS2 coat protein [3] and 0.0439 µM with MS2 coat protein [4].
For the sequence “GAAAAGUGAGGAUAUACAUGAGGAUCACCCAUGUGUAUAAAAAAUUACACAAAAGAAAGUAGAAGGCACUAAAA [Mat - Exclusion 3 - Mayanna mod - D114]”, the “apparent KD of MS2 coat protein” value was found to be 0.0281 µM in the data set with MS2 coat protein [3] and 0.0178 µM in the data set with MS2 coat protein [4].
In the case of “GACGAGUGAGGAUAUGUAAAAAAAAGAGAAGAGAAGAGAGAACAGAAGGCACAUGAGGAUCACCCAUGUAGGGA [Default title]”, the “apparent KD of MS2 coat protein” value with MS2 coat protein [3] was found to be 0.071 µM; in the data set with MS2 coat protein [4], 0.114 µM.
The like results for “GAGAAGUUAGGAUAUGCGGAGGGAAGGAAGGAAAGGGAAGGGCAGAAGGAACAUGAGGAUCACCCAUGUAAGAG [salish99-ex4-02]” were, in that order, 0.0253 µM and 0.0359 µM.
“GAGAGCCGAGGAUAUACAUGAGGAUCACCCAUGUAAAAAAAAAAAAAAAAAAAAUCAUGUAGAAGGCGGCUUUC [hsl_exclusion3]”: the “apparent KD of MS2 coat protein” value in the data set on MS2 coat protein [3] amounted to 0.0289 µM; in the data set with MS2 coat protein [4] it was 0.234 µM.
Turning to “GCUUGUCAAGGAUAUACAUGAGGAUCACCCAUGUGAGAGAAAAAAGUGAGAAAGAAAAGUAGAAGGUGGUGAGG [salish99-ex3-78]”, the “apparent KD of MS2 coat protein” value in the data set with MS2 coat protein [3] is 0.0466 µM; in the data set on MS2 coat protein [4], 0.0333 µM.
Consider “GCUUUGCAAGGAUAUACAUGAGGAUCACCCAUGUGAGAGAAAAAAGUGAGAAAGAAAAGUAGAAGGUGCGGAGG [salish99-ex3-120]”, for which the “apparent KD of MS2 coat protein” value in the data set with MS2 coat protein [3] is 0.044 µM; with MS2 coat protein [4], 0.0342 µM.
Consider “GGAUGUCAAGGAUAUACAUGAGGAUCACCCAUGUGAGAGAAAAAAGUGAGAAAGAAAAGUAGAAGGUGGUGUCG [salish99-ex3-87]”, for which the “apparent KD of MS2 coat protein” value in the data set on MS2 coat protein [3] is 0.0561 µM; in the data set on MS2 coat protein [4] it was 0.0385 µM.
Turning to “GGGCCACAUGAGGAUCACCCAUGUAAGGAUAUGCUAGGGAUGGAAACCAUUACGCAAAGCAGAAGGUACUAAAG [Janelle Amethyst 18 Mod 10 - Jieux - Exclusion 1]”, the “apparent KD of MS2 coat protein” value amounted to 0.0282 µM with MS2 coat protein [3] and 0.0267 µM in the data set with MS2 coat protein [4].
The like results for “GGUUGGCGAGGAUAUACAUGAGGAUCACCCAUGUGAGAGAAAAAAGUGAGAAAGAACAGUAGAAGGCGCUGACG [salish99-ex3-29]” were, in that order, 0.0728 µM and 0.0234 µM.
Turning to “GUGUACAGAGGAUAUACUAAAGCAUGGAAACAUGCAAGAUCACAUGAGGAUCACCCAUGUAGAAGGCUGUACAC [Ex2: 741]”, the “apparent KD of MS2 coat protein” value with MS2 coat protein [3] amounted to 0.529 µM; in the data set with MS2 coat protein [4], 0.0623 µM.
For “UACGUAUGAGGAUAUACAAACAGAAAAAUCAGACAUAACAGACAUGAGGAUCACCCAUGUAGAAGGCAUAUACA [JR_Exc002_Sub903]”, the “apparent KD of MS2 coat protein” value was found to be 0.0153 µM in the data set on MS2 coat protein [3] and 0.0201 µM with MS2 coat protein [4].
In the case of “UAGGUACGAGGAUAUACAUAGAUACAGACACAUGUAGAUGUACAUGAGGAUCACCCAUGUAGAAGGCGUAUAUA [Mat - Same state - Mayanna Mod - D110]”, the “apparent KD of MS2 coat protein” value with MS2 coat protein [3] came to 0.142 µM; in the data set with MS2 coat protein [4] it was 0.0526 µM.
For the sequence “UAUAACCAAGGAUAUACUAACGAAACUAAUGCAUAUAUAUAACAUGAGGAUCACCCAUGUAGAAGGUGGAGAAU [JR_Exc002_Sub012]”, the “apparent KD of MS2 coat protein” value in the data set on MS2 coat protein [3] is 0.0502 µM; with MS2 coat protein [4] it was 0.0605 µM.
In the case of “UAUAGACAUGAGGAUCACCCAUGUGAGGAUAUCGGUAACUACAAAACAUCACAUACAACGAGAAGGCACAGAAA [JR_Exc001_Sub013]”, the “apparent KD of MS2 coat protein” value in the data set with MS2 coat protein [3] worked out at 0.0351 µM; in the data set on MS2 coat protein [4], 0.0415 µM.

For the origin of these results see the supplement of paper PMC9170038.
